In patent publication EP4062934A1 (CentricsBio, Inc., dated 2022):

Biological target: T1, CD300c antigen (UniProt Q08708 21-183, limits assumed)
T1 construct: also called CD300c protein
T1 sequence (looked up): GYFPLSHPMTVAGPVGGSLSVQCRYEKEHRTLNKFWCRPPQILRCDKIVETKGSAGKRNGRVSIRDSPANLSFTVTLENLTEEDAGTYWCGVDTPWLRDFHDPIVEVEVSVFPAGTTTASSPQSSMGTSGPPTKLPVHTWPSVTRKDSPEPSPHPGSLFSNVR
Experiment: binding ELISA, antigen coated, anti-Fc HRP detection

- EC50: 49.7 µg/mL
B1: anti-CD300c monoclonal antibody CL8 (antibody, V domains shown)
VH: EVQLLESGGGLVQPGGSLRLSCAASGFTFSSYAMSWVRQAPGKGLEWVSAISGSGGSTYYADSVKGRFTISRNNSKNTLYLQMNSLRAEDTAVYYCARSGRYADLTSGGQGTLVTVSS
VL: QSVLTQPPSASGTPGQRVTISCSGSNSNIGNNYVSWYQQLPDTPPKLLIYDNNKRPSGVPDRFSGSKSGTSASLAISGLRSEDEADYYCSSYTSSSTVMFGGGTKLTVL
